In patent US20080108569A1, “Compositions and Methods for Treating Diseases Associated With Phlpp” (The Regents of the University of California, priority 2005, published 2008):

Key:
Akt [1] = assay: in vitro kinase assay of Akt immunoprecipitated from 293T cells overexpressing PHLPP2; format: cell-based
Method: H157 cells transfected with vector or HA-PHLPP were lysed in buffer A. The detergent-solubilized cell lysates were incubated with an anti-Akt monoclonal antibody (5G3) and Ultra-link protein A/G beads (Pierce) at 4° C. overnight. Beads were washed three times in buffer A and twice in buffer B (25 mM Tris, pH 7.4, 10 mM MgCl2 and 1 mM DTT). In vitro kinase assays were carried out by incubating immunoprecipitated Akt in buffer containing 25 mM Tris, pH 7.4, 10 mM MgCl2 and 1 mM DTT, 200 μM ATP, 6 μM Crosstide (Upstate Biotechnology) and ^32Pγ-ATP at 30° C. for 30 minutes. Each reaction was performed in duplicate. The reactions were spotted onto P81 filter paper (Whatman), and radioactivity incorporated into the peptide was measured using a scintillation counter.
Akt was immunoprecipitated from cell lysates using Akt agarose (Upstate Biotechnologies) and kinase reactions were performed using an Akt kinase assay kit (Cell Signaling) as described previously in Example 5.

MEK 1/2 or ERK 1/2 = assay: MAPK signaling pathway on PHLPP2 expression (Western blot); format: cell-based; conditions: untreated cells
Method: (§1) ZR-75-1 cell lines were maintained in RPMI 1640 (Cellgro), and all other cell lines were maintained in DMEM (Celigro); both media were supplemented with 10% FBS and 1% penicillin/streptomycin. Cells were maintained at 37° C. in 5% CO2. Transient transfections and siRNA experiments were performed as previously described (6), except for ZR-75-1 cells, which were transfected using FuGENE reagent (Roche). For immunoblotting, transfected cells were lysed in Buffer 1 (50 mM Na2HPO4, pH 7.5, 1 mM sodium pyrophosphate, 20 mM NaF, 2 mM EDTA, 2 mM EGTA, 1% SDS, 1 mM DTT, 200 mM benzamidine, […] leupeptin, and 1 mM PMSF) and sonicated for 5 seconds. Lysates containing equal protein were analyzed on SDS-PAGE gels, and individual blots were probed using each antibody. Densitometric analysis was performed with the NIH Image analysis software (version 1.63).

PKC, p90RSK, or p70S6K = assay: phosphorylation of the hydrophobic motif in other AGC family kinases on PHLPP2 expression (Western blot); format: cell-based; conditions: 293T and H157 cells
Method: as §1

Akt [2] = molecular target: T1, Akt (Homo sapiens, UniProt P31749); assay: dephosphorylation assay with immunoprecipitated full-length HA-PHLPP2 and pure Akt; format: biochemical
T1 construct: 6His; made in house; host or cells: Akt1: baculovirus-infected Sf21 cells; HA-PHLPP2: transfected 293T cells, immunoprecipitated with HA antibody
Method: A GST-fusion protein of PHLPP-1α-PP2C was expressed in BL21 (DE3) and purified using glutathione-Sepharose. The GST-PP2C proteins were eluted from the beads in PBS containing 10 mM glutathione and 1 mM DTT, and dialyzed against 50 mM Tris (pH 7.4) and 1 mM DTT. His-tagged Akt was expressed and purified from baculovirus-infected Sf21 cells. Briefly, Sf21 cells were maintained in SF-900 II media (Invitrogen) and infected with baculovirus encoding His-Akt for 3 days. To obtain maximally phosphorylated Akt as substrate, the infected cells were treated with 10% FBS and calyculin A (100 nM) for 15 minutes prior to lysis. The infected cells were lysed in PBS containing 1% Triton X-100 and 10 mM imidazole, and His-Akt proteins were purified using Ni-NTA beads (Qiagen). The dephosphorylation reactions were carried out in a reaction buffer containing 50 mM Tris (pH 7.4), 1 mM DTT and 5 mM MnCl2 at 30° C. for 0-30 minutes.
GST-PP2C was expressed in BL21 bacterial cells; phosphatase assays were performed using the purified GST-PP2C construct conjugated to glutathione-sepharose and pure Akt as a substrate as described above. The activity of full length HA-PHLPP2 was assessed by expressing and immunoprecipitating PHLPP2 from 293T or H157 cell lysates. Cells were lysed in Buffer 2 (20 mM HEPES, pH 7.4, 1% Triton X-100, 1 mM DTT, 200 mM benzamidine, […] leupeptin, and 1 mM PMSF). […]

Akt [3] = assay: Akt phosphorylation in cells overexpressing HA-PHLPP2 (Western blot); format: cell-based
Method: as §1

293T cells = assay: G1/S ratio by flow cytometry, PHLPP2 expression; format: cell-based; conditions: high serum (10% FBS), 48 hrs
Method: (§2) Apoptotic assays were performed as described above. To determine G1/S ratios, cells were co-transfected with GFP and HA-PHLPP2 and incubated under high serum (10% FBS) conditions for 48 hrs and cells were gated based on GFP expression as described above. For BrdU incorporation assays, cells were transfected with 100 nM siRNA (si-1) and incubated for 48 hrs prior to performing assay following manufacturers protocol (Oncogene Research Products).

H157 cells [4] = assay: G1/S ratio by flow cytometry, PHLPP2 expression; format: cell-based; conditions: high serum (10% FBS), 48 hrs
Method: as §2

H157 cells [5] = assay: apoptosis assay, sub-2N DNA by flow cytometry; format: cell-based; conditions: serum deprivation; vector-transfected cells 3.1±0.1%
Method: (§3) Apoptosis assays were performed as described previously (Brognard et al., 2001). Briefly, cells were transfected with different PHLPP expression constructs or siRNAs. In the case of gating for transfected cells, a GFP expression construct was co-transfected into the cells. Approximately 24 hours post-transfection, the cells were switched to low serum medium (DMEM plus 0.1% FBS) and allowed to grow for an additional 48 hours. For LY294002 (25 μM) treatment, the drug was added at the time when the cells were switched into the low serum medium. The cells were collected and stained with propidium iodide (25 μg/ml). Apoptotic cells were defined as sub-2N DNA containing cells. Quantification of apoptosis was obtained using flow cytometry analysis with a Becton Dickinson FACSort.
as §2

Bt-474 cells = assay: apoptosis assay, sub-2N DNA by flow cytometry; format: cell-based; conditions: from 2.0+0.2 without PHLPP2
Method: as §3, §2

MDA-MB-231 cells = assay: apoptosis assay, sub-2N DNA by flow cytometry; format: cell-based; conditions: from 2.9+0.9 without PHLPP2
Method: as §3, §2

T1 sequence (P31749 whole entry): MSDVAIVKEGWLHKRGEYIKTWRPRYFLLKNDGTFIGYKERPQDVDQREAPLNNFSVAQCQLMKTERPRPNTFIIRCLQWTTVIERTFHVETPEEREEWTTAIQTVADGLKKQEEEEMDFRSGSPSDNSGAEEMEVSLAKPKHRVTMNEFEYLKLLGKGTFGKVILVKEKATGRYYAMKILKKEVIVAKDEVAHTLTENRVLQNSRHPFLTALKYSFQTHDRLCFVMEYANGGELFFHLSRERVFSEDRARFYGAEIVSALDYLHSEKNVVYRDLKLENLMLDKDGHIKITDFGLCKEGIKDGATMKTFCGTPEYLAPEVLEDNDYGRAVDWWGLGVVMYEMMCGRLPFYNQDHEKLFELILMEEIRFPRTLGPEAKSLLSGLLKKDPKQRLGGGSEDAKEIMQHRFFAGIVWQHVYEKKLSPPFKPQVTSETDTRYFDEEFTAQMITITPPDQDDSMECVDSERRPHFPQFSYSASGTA

dephosphorylation of Ser 473 (Akt [2]): 60+4%
effect on Thr 308 phosphorylation (Akt [2]): no significant effect
B1: HA-PHLPP2: HA-tagged full length human PHLPP2 expressed from pcDNA3HA vector; PHLPP2 protein is SEQ ID NO: 4 (protein, listed as Homo sapiens)
chain: MKRNGSRNCLNRRSRFGSRERDWLREDVKRGCVYLYGADTTTATTTTTTSSSSSSSSSSSDLHLVLCTVETPASEICAGEGRESLYLQLHGDLVRRLEPTERPLQIVYDYLSRLGFDDPVRIQEEATNPDLGCMIRFYGEKPCHMDRLDRILLSGIYNVRKGKTQLHKWAERLVVLCGTCLIVSSVKDCQTGKMHILPLVGGKIEEVKRRQYSLAFSSAGAQAQTYHVSFETLAEYQRWQRQASKVVSQRISTVDLSCYSLEEVPEHLFYSQDITYLNLRHNFMQLERPGGLDTLYKFSQLKGLNLSHNKLGLFPILLCEISTLTELNLSCNGFHDLPSQIGNLLNLQTLCLDGNFLTTLPEELGNLQQLSSLGISFNNFSQIPEVYEKLTMLDRVVMAGNCLEVLNLGVLNRMNHIKHVDLRMNHLKTMVIENLEGNKHITHVDLRDNRLTDLDLSSLCSLEQLHCGRNQLRELTLSGFSLRTLYASSNRLTAVNVYPVPSLLTFLDLSRNLLECVPDWACEAKKIEVLDVSYNLLTEVPVRILSSLSLRKLMLGHNHVQNLPTLVEHIPLEVLDLQHNALTRLPDTLFSKALNLRYLNASANSLESLPSACTGEESLSMLQLLYLTNNLLTDQCIPVLVGHLHLRILHLANNQLQTFPASKLNKLEQLEELNLSGNKLKTIPTTIANCKRLHTLVAHSNNISIFPEILQLPQIQFVDLSCNDLTEILIPEALPATLQDLDLTGNTNLVLEHKTLDIFSHITTLKIDQKPLPTTDSTVTSTFWSHGLAEMAGQRNKLCVSALAMDSFAEGVGAVYGMFDGDRNEELPRLLQCTMADVLLEEVQQSTNDTVFMANTFLVSHRKLGMAGQKLGSSALLCYIRPDTADPASSFSLTVANVGTCQAVLCRGGKPVPLSKVFSLEQDPEEAQRVKDQKAIITEDNKVNGVTCCTRMLGCTYLYPWILPKPHISSTPLTIQDELLILGNKALWEHLSYTEAVNAVRHVQDPLAAAKKLCTLAQSYGCQDNVGAMVVYLNIGEEGCTCEMNGLTLPGPVGFASTTTIKDAPKPATPSSSSGIASEFSSEMSTSEVSSEVGSTASDEHNAGGLDTALLPRPERRCSLHPTPTSGLFQRQPSSATFSSNQSDNGLDSDDDQPVEGVITNGSKVEVEVDIHCCRGRDLENSPPLIESSPTLCSEEHARGSCFGIRRQNSVNSGMLLPMSKDRMELQKSPSTSCLYGKKLSNGSIVPLEDSLNLIEVATEVPKRKTGYFAAPTQMEPEDQFVVPHDLEEEVKEQMKQHQDSRLEPEPHEEDRTEPPEEFDTAL
modifications: HA tag
reduction in Ser 473 phosphorylation of immunoprecipitated Akt (Akt [1]; 293T cells overexpressing PHLPP2, compared to vector-transfected cells): 70%
reduction in substrate phosphorylation (GSK-3 fusion protein) (Akt [1]; Akt from 293T cells overexpressing PHLPP2): 80%
phosphorylation of MEK 1/2 or ERK 1/2 (MEK 1/2 or ERK 1/2): did not alter
effect on the phosphorylation of the hydrophobic motif in PKC, p90RSK, or p70S6K (PKC, p90RSK, or p70S6K): no significant effect
decrease in phosphorylation at Ser 473 (Akt [3]; Bt-474 cell line): approximately 80%
decrease in phosphorylation at Ser 473 (Akt [3]; MDA-MB-231 cell line): ~70%
effects on the phosphorylation of Thr 308 (Akt [3]; overexpression in 293T and H157 cells): minimal effects
reduction in phosphorylation at Ser 473 (Akt [3]; overexpression in 293T cells): 76±3%
reduction in phosphorylation at Ser 473 (Akt [3]; overexpression in H157 cells): 72+8%
increase in the G1/S ratio (293T cells): approximately 3 fold
increase in the G1/S ratio (H157 cells [4]): approximately 2 fold
relative sub-2N DNA (apoptosis) (H157 cells [5]): 28±5%
apoptosis (sub-2N-DNA content) (Bt-474 cells): 15.8+0.6 relative units
apoptosis (sub-2N-DNA content) (MDA-MB-231 cells): 11.5+3.6 relative units
